# Results published in the supplement of paper PMC9112550, “Optimization of the antimicrobial peptide Bac7 by deep mutational scanning” (BMC Biology, 2022).
# System: Escherichia coli TOP10
# Assay: shrunken log2 fold change of peptide-encoding DNA abundance (4.5 h post-induction vs induction); higher = less antimicrobial activity (less host growth inhibition)
# Conditions: time post-induction: 4.5 h; library: site-saturation at positions 5, 18, 19, 20
# 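Further: peptides expressed intracellularly from a pBAD plasmid library in pooled LB shake-flask culture, induced with 0.3% L-arabinose, DNA abundance read by NGS, three biological replicates, DESeq2 with apeglm shrinkage.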
row,Sequence,shrunken log2 fold change
1,RRIRMRPPRLPRPRPRPPVAPRP,1.3
2,RRIRMRPPRLPRPRPRPPVDPRP,1.14
3,RRIRMRPPRLPRPRPRPPWAPRP,0.911
4,RRIRMRPPRLPRPRPRPPWIPRP,0.248
5,RRIRMRPPRLPRPRPRPPWTPRP,1.15
6,RRIRMRPPRLPRPRPRPPYIPRP,-0.0556
7,RRIRMRPPRLPRPRPRPQASPRP,0.309
8,RRIRMRPPRLPRPRPRPQFWPRP,0.245
9,RRIRMRPPRLPRPRPRPQGWPRP,1.01
10,RRIRMRPPRLPRPRPRPQHTPRP,-0.0951
11,RRIRMRPPRLPRPRPRPQIPPRP,-0.127
12,RRIRMRPPRLPRPRPRPQKNPRP,0.628
13,RRIRMRPPRLPRPRPRPQLSPRP,-0.102
14,RRIRMRPPRLPRPRPRPQMAPRP,0.349
15,RRIRMRPPRLPRPRPRPQPNPRP,0.546
16,RRIRMRPPRLPRPRPRPQPSPRP,1.11
17,RRIRMRPPRLPRPRPRPQQAPRP,0.0303
18,RRIRMRPPRLPRPRPRPQRFPRP,-0.0093
19,RRIRMRPPRLPRPRPRPQSHPRP,0.083
20,RRIRMRPPRLPRPRPRPQTTPRP,0.634
21,RRIRMRPPRLPRPRPRPQVFPRP,0.281
22,RRIRMRPPRLPRPRPRPQVVPRP,0.0936

row,Sequence,shrunken log2 fold change
1,RRIRMRPPRLPRPRPRPQWVPRP,0.0772
2,RRIRMRPPRLPRPRPRPQYGPRP,0.015
3,RRIRMRPPRLPRPRPRPQYIPRP,-0.0206
4,RRIRMRPPRLPRPRPRPRAWPRP,0.32
5,RRIRMRPPRLPRPRPRPRCQPRP,0.00313
6,RRIRMRPPRLPRPRPRPRDVPRP,0.372
7,RRIRMRPPRLPRPRPRPREKPRP,1.19
8,RRIRMRPPRLPRPRPRPRFEPRP,0.36
9,RRIRMRPPRLPRPRPRPRFNPRP,0.148
10,RRIRMRPPRLPRPRPRPRICPRP,0.113
11,RRIRMRPPRLPRPRPRPRIWPRP,0.726
12,RRIRMRPPRLPRPRPRPRIYPRP,-0.0363
13,RRIRMRPPRLPRPRPRPRKVPRP,0.767
14,RRIRMRPPRLPRPRPRPRNAPRP,2.06
15,RRIRMRPPRLPRPRPRPRNPPRP,3.17
16,RRIRMRPPRLPRPRPRPRQEPRP,1.13
17,RRIRMRPPRLPRPRPRPRQSPRP,0.982
18,RRIRMRPPRLPRPRPRPRRQPRP,1.13
19,RRIRMRPPRLPRPRPRPRRVPRP,1.3
20,RRIRMRPPRLPRPRPRPRSEPRP,0.81
21,RRIRMRPPRLPRPRPRPRSGPRP,0.815
22,RRIRMRPPRLPRPRPRPRSYPRP,0.068

row,Sequence,shrunken log2 fold change
1,RRIRMRPPRLPRPRPRPRTRPRP,1.09
2,RRIRMRPPRLPRPRPRPRVLPRP,1.12
3,RRIRMRPPRLPRPRPRPRWSPRP,0.803
4,RRIRMRPPRLPRPRPRPRYAPRP,0.467
5,RRIRMRPPRLPRPRPRPSARPRP,1.07
6,RRIRMRPPRLPRPRPRPSDQPRP,-0.198
7,RRIRMRPPRLPRPRPRPSGDPRP,0.839
8,RRIRMRPPRLPRPRPRPSHEPRP,0.267
9,RRIRMRPPRLPRPRPRPSHIPRP,-0.659
10,RRIRMRPPRLPRPRPRPSHSPRP,-0.266
11,RRIRMRPPRLPRPRPRPSKAPRP,0.455
12,RRIRMRPPRLPRPRPRPSKCPRP,-0.0848
13,RRIRMRPPRLPRPRPRPSKQPRP,0.495
14,RRIRMRPPRLPRPRPRPSKRPRP,0.386
15,RRIRMRPPRLPRPRPRPSMTPRP,2.18
16,RRIRMRPPRLPRPRPRPSNIPRP,-0.227
17,RRIRMRPPRLPRPRPRPSPAPRP,1.83
18,RRIRMRPPRLPRPRPRPSPPPRP,0.74
19,RRIRMRPPRLPRPRPRPSRDPRP,0.257
20,RRIRMRPPRLPRPRPRPSSEPRP,-0.103
21,RRIRMRPPRLPRPRPRPSTGPRP,0.17
22,RRIRMRPPRLPRPRPRPSWLPRP,0.0725

row,Sequence,shrunken log2 fold change
1,RRIRMRPPRLPRPRPRPSWVPRP,0.051
2,RRIRMRPPRLPRPRPRPTANPRP,0.921
3,RRIRMRPPRLPRPRPRPTATPRP,3.59
4,RRIRMRPPRLPRPRPRPTCRPRP,0.32
5,RRIRMRPPRLPRPRPRPTCYPRP,0.0375
6,RRIRMRPPRLPRPRPRPTDCPRP,-0.0353
7,RRIRMRPPRLPRPRPRPTEQPRP,-0.0171
8,RRIRMRPPRLPRPRPRPTFEPRP,-0.0436
9,RRIRMRPPRLPRPRPRPTGCPRP,0.588
10,RRIRMRPPRLPRPRPRPTHWPRP,0.864
11,RRIRMRPPRLPRPRPRPTHYPRP,0.226
12,RRIRMRPPRLPRPRPRPTIPPRP,-0.316
13,RRIRMRPPRLPRPRPRPTKPPRP,0.0618
14,RRIRMRPPRLPRPRPRPTLWPRP,0.968
15,RRIRMRPPRLPRPRPRPTMHPRP,0.488
16,RRIRMRPPRLPRPRPRPTPEPRP,0.713
17,RRIRMRPPRLPRPRPRPTPIPRP,0.255
18,RRIRMRPPRLPRPRPRPTRIPRP,0.447
19,RRIRMRPPRLPRPRPRPTRKPRP,1.6
20,RRIRMRPPRLPRPRPRPTRSPRP,1.35
21,RRIRMRPPRLPRPRPRPTSAPRP,0.74
22,RRIRMRPPRLPRPRPRPTSFPRP,0.347

row,Sequence,shrunken log2 fold change
1,RRIRMRPPRLPRPRPRPTSIPRP,-0.0517
2,RRIRMRPPRLPRPRPRPTSTPRP,0.16
3,RRIRMRPPRLPRPRPRPTVFPRP,0.498
4,RRIRMRPPRLPRPRPRPTVLPRP,0.477
5,RRIRMRPPRLPRPRPRPTVVPRP,0.0159
6,RRIRMRPPRLPRPRPRPTVWPRP,0.736
7,RRIRMRPPRLPRPRPRPTWKPRP,-0.0427
8,RRIRMRPPRLPRPRPRPTWQPRP,0.288
9,RRIRMRPPRLPRPRPRPTYGPRP,-0.00932
10,RRIRMRPPRLPRPRPRPVCGPRP,0.898
11,RRIRMRPPRLPRPRPRPVDAPRP,1.17
12,RRIRMRPPRLPRPRPRPVDKPRP,0.0379
13,RRIRMRPPRLPRPRPRPVEAPRP,0.396
14,RRIRMRPPRLPRPRPRPVEDPRP,0.358
15,RRIRMRPPRLPRPRPRPVEGPRP,-0.000687
16,RRIRMRPPRLPRPRPRPVEVPRP,0.389
17,RRIRMRPPRLPRPRPRPVIHPRP,0.0153
18,RRIRMRPPRLPRPRPRPVIRPRP,0.00204
19,RRIRMRPPRLPRPRPRPVISPRP,-0.28
20,RRIRMRPPRLPRPRPRPVITPRP,0.043
21,RRIRMRPPRLPRPRPRPVKQPRP,0.0432
